# Results as given in patent publication US20250179151A1, “SPIKE FURIN CLEAVAGE IS A SARS-COV-2 TARGETING STRATEGY TO BREAK THE CHAIN OF INFECTION CYCLE” (University of Virginia Patent Foundation, priority 2022, published 2025).
# Entries after “also recorded” stand apart in the source; their conditions may differ. Peptide text beside a SMILES is read from it. * marks the point of attachment. Cbz = O=C(OCc1ccccc1)*
# B1: farletuzumab-FuG1 (antibody)
# heavy: EVQLVESGGGVVQPGRSLRLSCSASGFTFSGYGLSWVRQAPGKGLEWVAMISSGGSYTYYADSVKGRFAISRDNAKNTLFLQMDSLRPEDTGVYFCARHGDDPAWFAYWGQGTPVTVSSASTKGPSVFPLAPSSKSTSGGTAALGCLVKDYFPEPVTVSWNSGALTSGVHTFPAVLQSSGLYSLSSVVTVPSSSLGTQTYICNVNHKPSNTKVDKKVEPKSCDKTHTCPPCPAPEAAGGPSVFLFPPKPKDTLMISRTPEVTCVVVDVSHEDPEVKFNWYVDGVEVHNAKTKPREEQYNSTYRVVSVLTVLHQDWLNGKEYKCKVSNKALPAPIEKTISKAKGQPREPQVYTLPPSREEMTKNQVSLTCLVKGFYPSDIAVEWESNGQPENNYKTTPPVLDSDGSFFLYSKLTVDKSRWQQGNVFSCSVMHEALHNHYTQKSLSLSLPGKEGGGSGRERKARGGCPGS
# light: DIQLTQSPSSLSASVGDRVTITCSVSSSISSNNLHWYQQKPGKAPKPWIYGTSNLASGVPSRFSGSGSGTDYTFTISSLQPEDIATYYCQQWSSYPYMYTFGQGTKVEIKRTVAAPSVFIFPPSDEQLKSGTASVVCLLNNFYPREAKVQWKVDNALQSGNSQESVTEQDSKDSTYSLSSTLTLSKADYEKHKVYACEVTHQGLSSPVTKSFNRGEC
# notes: also called Farle-FuG1; Farletuzumab-FuG1 antibody
# B2: farletuzumab-FuG1: anti-FOLR1 farletuzumab with FuG1 Fc-extended peptide (SEQ ID NO: 44) (antibody)
# heavy: EVQLVESGGGVVQPGRSLRLSCSASGFTFSGYGLSWVRQAPGKGLEWVAMISSGGSYTYYADSVKGRFAISRDNAKNTLFLQMDSLRPEDTGVYFCARHGDDPAWFAYWGQGTPVTVSSASTKGPSVFPLAPSSKSTSGGTAALGCLVKDYFPEPVTVSWNSGALTSGVHTFPAVLQSSGLYSLSSVVTVPSSSLGTQTYICNVNHKPSNTKVDKKVEPKSCDKTHTCPPCPAPEAAGGPSVFLFPPKPKDTLMISRTPEVTCVVVDVSHEDPEVKFNWYVDGVEVHNAKTKPREEQYNSTYRVVSVLTVLHQDWLNGKEYKCKVSNKALPAPIEKTISKAKGQPREPQVYTLPPSREEMTKNQVSLTCLVKGFYPSDIAVEWESNGQPENNYKTTPPVLDSDGSFFLYSKLTVDKSRWQQGNVFSCSVMHEALHNHYTQKSLSLSLPGKEGGGSGRERKARGGCPGS
# light: DIQLTQSPSSLSASVGDRVTITCSVSSSISSNNLHWYQQKPGKAPKPWIYGTSNLASGVPSRFSGSGSGTDYTFTISSLQPEDIATYYCQQWSSYPYMYTFGQGTKVEIKRTVAAPSVFIFPPSDEQLKSGTASVVCLLNNFYPREAKVQWKVDNALQSGNSQESVTEQDSKDSTYSLSSTLTLSKADYEKHKVYACEVTHQGLSSPVTKSFNRGEC
# B3: 6.29-IgG1: ACE-2-RBD neutralizing antibody (Rogers et al., 2020); SEQ ID NOs: 11 and 15 (protein)
# light: DIQLTQSPSSLSASVGDRVTITCRASQTASSYLNWYQQKPGKAPNLLIYAASSLQSGVPSRFSGSGSVTDFTLTISSLQPEDFATYYCQQSYSTPPTFGQGTKVDIKRTVAAPSVFIFPPSDEQLKSGTASVVCLLNNFYPREAKVQWKVDNALQSGNSQESVTEQDSKDSTYSLSSTLTLSKADYEKHKVYACEVTHQGLSSPVTKSFNRGEC
# heavy: QVQLVQSGSELKKPGASVKVSCKASGYTFATYALNWVRQAPGQGLEWMGWVNTNTGSPTYAQGFTGRFVFSFDTSVSTAYLQIRTLKAEDTAVYYCAVYYYDSGSPGWFDPWGQGTLVTVSSASTKGPSVFPLAPSSKSTSGGTAALGCLVKDYFPEPVTVSWNSGALTSGVHTFPAVLQSSGLYSLSSVVTVPSSSLGTQTYICNVNHKPSNTKVDKKVEPKSCDKTHTCPPCPAPEAAGGPSVFLFPPKPKDTLMISRTPEVTCVVVDVSHEDPEVKFNWYVDGVEVHNAKTKPREEQYNSTYRVVSVLTVLHQDWLNGKEYKCKVSNKALPAPIEKTISKAKGQPREPQVYTLPPSREEMTKNQVSLTCLVKGFYPSDIAVEWESNGQPENNYKTTPPVLDSDGSFFLYSKLTVDKSRWQQGNVFSCSVMHEALHNHYTQKSLSLSLGK
# Tests used:
# [1] = molecular target: T1, furin (Homo sapiens, UniProt P09958); type: biochemical; details: peptide inserted in rDR5-IgG4-Fc; 10 ng recombinant furin
# [2] = system: spike S0; type: cell-based, SARS-CoV-2
# [3] = system: pseudoviral spike S0 and S2; type: cell-based, SARS-CoV-2
# [4] = system: spike S1/S2 cleavage; type: cell-based, SARS-CoV-2
# [5] = molecular target: T2, IgG4-Fc tagged rFOLR1 antigen (UniProt P15328 25-233); assay: ELISA, IgG4-Fc tagged rFOLR1 coated, detection with anti-IgG1-Fc HRP
# T2 construct: extracellular domain; also called recombinant IgG4-Fc FOLR1
# [6] = molecular target: T1, furin; assay: BLI binding kinetics against immobilized biotinylated furin; details: compared to cFuG1
# Protocol: (§1) FIGS. 2A-2C. Furin inhibitory function and flexibility of Fc-extended FuG1 peptide strategy. (FIG. 2A) The binding kinetics of immobilized biotinylated furin against indicated farletuzumab-FuG1, farletuzumab-cFuG1, and Farletuzumab-IgG1 were measured using BLI. (FIGS. 2B and 2C) FuG1 and cFuG1 antibodies were tested using a competitive inhibitory furin assay kit, which measures fluorescent signal as an indicator of the protease activity kinetics.
# Binding studies by BioLayer Interferometry (BLI). Binding measurements were performed using Bio-Layer Interferometry on FortéBio Red Octet 96 instrument (Pall) as described in Shivange et al., 2018. Biotin-Streptavidin based sensors were employed for the studies. Recombinant Fc linked DR5 variants were biotinylated using EZ-Link Sulfo-NHS—SS-Biotin (Thermo Scientific 21331) following the manufacturer's instructions. Unreacted Sulfo-NHS—SS-Biotin reaction was quenched by 50 mM Tris-Cl pH 7.4 and removed via dialyzing against PBS. For binding analysis biotinylated antigen (1 μg/mL) were immobilized on streptavidin (SA) biosensors (Pall) for 300 sec to ensure saturation. Associate and dissociation reactions were set in 96-well microplates filled with 200 μL of unbiotinylated DR5 agonist for 900 seconds. All interactions were conducted at 37° C. in PBS buffer containing 2 mg/ml BSA. These binding observations were also confirmed by biotinylating the agonist antibodies and probed against unbiotinylated DR5-Fc variants. Kinetic parameters (KON and KOFF) and affinities (KD) were analyzed using Octet data analysis software, version 9.0 (Pall).
# To confirm furin binding and competing function, farletuzumab-FuG1 and farletuzumab-cFuG1 were expressed in the presence of furin inhibitors. Purified antibodies were analyzed for their Fc-extended peptide binding to biotinylated furin using BLI. […] The latter indicated a potential higher competitive furin occupancy time of FuG1 peptide with the increased antibody concentration (Hoare et al., 2020).
# [7] = system: spike S0 and S2; type: cell-based, SARS-CoV-2
# [8] = molecular target: T1, furin; assay: Furin protease activity assay (fluorogenic substrate); type: biochemical; details: particularly at higher doses; compared with farletuzumab-cFuG1
# Protocol: as §1
# Furin protease activity assay. Different concentrations of farletuzumab-FuGi, farletuzumab-cFuGi (25-250 ng) or furin assay buffer (negative control) were pre-incubated with 25 ng of furin (50 μl, 0.5 ng/μl in furin assay buffer) in a total reaction volume of 100 μl for 10 minutes at room temperature. […] The fluorescence intensity of the reaction mixture was monitored at excitation wavelength of 380 nm and detection of emission at wavelength 460 nm using 96 well microplate reader (BioTek Instruments Inc, USA). […] For kinetic study, fluorescence was measured immediately after adding the protease substrate and data was recorded every 1 minute for 15 min at Ex/Em=380 nm/460 nm.
# To confirm furin binding and competing function, farletuzumab-FuG1 and farletuzumab-cFuG1 were expressed in the presence of furin inhibitors. Purified antibodies were analyzed for their Fc-extended peptide binding to biotinylated furin using BLI. […]
# [9] = system: 293-ACE2 and RFP-stable HCC-1806 cells; assay: Syncytia in Spike-EGFP transfected co-culture of 293-ACE2 and HCC-1806 cells; type: cell-based; details: co-cultures, 100 μg antibody
# [10] = system: spike cleavage at S1/S2; type: cell-based, SARS-CoV-2
# [11] = system: 293-ACE2 cells; type: cell-based; details: spike transfected 293-ACE2 cells, 24 hours
# T1 sequence (P09958 108-794): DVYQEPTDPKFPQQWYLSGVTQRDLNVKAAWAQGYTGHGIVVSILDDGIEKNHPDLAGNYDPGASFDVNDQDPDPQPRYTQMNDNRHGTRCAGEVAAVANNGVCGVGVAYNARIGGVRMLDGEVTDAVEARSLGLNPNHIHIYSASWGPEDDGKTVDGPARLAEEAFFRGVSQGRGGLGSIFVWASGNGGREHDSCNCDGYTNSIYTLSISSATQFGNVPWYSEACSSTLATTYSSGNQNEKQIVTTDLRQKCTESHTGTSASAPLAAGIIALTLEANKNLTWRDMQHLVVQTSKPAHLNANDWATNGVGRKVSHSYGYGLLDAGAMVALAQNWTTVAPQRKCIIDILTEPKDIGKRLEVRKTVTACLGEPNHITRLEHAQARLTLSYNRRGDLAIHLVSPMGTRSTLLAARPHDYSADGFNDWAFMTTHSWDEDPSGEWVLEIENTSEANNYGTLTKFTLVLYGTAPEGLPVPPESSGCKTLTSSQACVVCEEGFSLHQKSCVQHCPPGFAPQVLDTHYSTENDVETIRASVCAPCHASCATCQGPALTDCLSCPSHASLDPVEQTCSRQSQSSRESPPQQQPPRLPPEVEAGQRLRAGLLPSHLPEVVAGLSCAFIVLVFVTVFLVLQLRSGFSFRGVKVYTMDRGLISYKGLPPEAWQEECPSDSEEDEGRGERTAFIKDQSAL
# T2 sequence (P15328 25-233 limits assumed): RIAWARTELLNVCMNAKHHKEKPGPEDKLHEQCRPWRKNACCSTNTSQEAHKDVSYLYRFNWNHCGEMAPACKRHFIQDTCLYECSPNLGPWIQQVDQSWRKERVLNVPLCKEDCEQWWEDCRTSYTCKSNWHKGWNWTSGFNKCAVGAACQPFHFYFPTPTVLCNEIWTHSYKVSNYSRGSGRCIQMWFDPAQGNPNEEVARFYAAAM
molecule,measurement,setting,value
EGGGSGRERKARGGCPGS [FuG1 peptide],cleavage by recombinant furin in vitro,[1],not cleaved
CC(C)C[C@@H](C=O)NC(=O)[C@H](CC(C)C)NC(=O)[C@H](CC(C)C)NC(=O)OCc1ccccc1 [MG132] (Cbz-Leu-Leu-Leu-aldehyde),furin processing of WT and ΔRRAR spike,[2],did not interfere
same,rescue of spike S0 loss,[2],partial rescue of spike S0 loss
same,total spike S0 signal,[2],at least two-fold higher; also recorded: significantly increased
same,pseudoviral S2 fragment generation,[3],remained inhibited
same,pseudoviral spike S0 destabilization,[3],rescued spike S0 destabilization
"C[C@H]1CCC/C=C/[C@@H]2C[C@H](O)C[C@H]2[C@H](O)/C=C/C(=O)O1 [Bfa, Brefeldin-A]",spike S1/S2 cleavage,[4],completely inhibited
B1,binding result,[5],binds
B2,furin association rate (KON),[6],lower
same,furin binding affinity (KD),[6],lower
same,"furin dissociation rate (KOFF), fold reduced",[6],~10 fold
same,S0 and S2 in co-culture lysates,[7],only partially reduced S2 conversion
same,inhibition of furin protease activity,[8],significant inhibition
same,syncytia load reduced,[9],~30%
B3,inhibition of spike cleavage at S1/S2,[10],non-inhibitory
same,syncytia blockade,[11],significantly more effective; also recorded: significantly effective
